# Like-named read-outs stand apart in the source and are kept apart here.
# T1: 6His-Bnr1-758 (Bnr1-N) (S. cerevisiae, UniProt P40450 1-758)
# T1 sequence (looked up): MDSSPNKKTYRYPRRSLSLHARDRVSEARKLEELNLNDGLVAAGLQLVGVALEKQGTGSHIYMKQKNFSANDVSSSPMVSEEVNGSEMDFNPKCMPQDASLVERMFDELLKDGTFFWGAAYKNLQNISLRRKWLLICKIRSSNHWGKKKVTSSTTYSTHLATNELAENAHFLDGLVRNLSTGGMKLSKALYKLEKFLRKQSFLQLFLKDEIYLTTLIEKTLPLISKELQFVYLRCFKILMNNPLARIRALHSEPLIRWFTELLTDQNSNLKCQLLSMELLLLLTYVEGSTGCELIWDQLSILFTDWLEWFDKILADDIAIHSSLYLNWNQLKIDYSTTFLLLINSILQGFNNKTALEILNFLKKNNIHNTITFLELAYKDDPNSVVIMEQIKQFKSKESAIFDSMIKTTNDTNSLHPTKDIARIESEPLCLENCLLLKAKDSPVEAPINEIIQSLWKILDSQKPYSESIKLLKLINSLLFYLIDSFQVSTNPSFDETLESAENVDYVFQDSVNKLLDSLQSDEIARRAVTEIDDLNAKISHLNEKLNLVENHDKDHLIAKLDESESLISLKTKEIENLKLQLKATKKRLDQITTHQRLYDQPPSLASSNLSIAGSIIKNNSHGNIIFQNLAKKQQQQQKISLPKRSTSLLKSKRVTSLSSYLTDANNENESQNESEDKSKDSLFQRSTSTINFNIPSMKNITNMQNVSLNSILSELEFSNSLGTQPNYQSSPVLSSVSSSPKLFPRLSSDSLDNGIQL
# Key:
# Experiment in all cases: pull-down
# 6His-Bnr1-758 (Bnr1-N) = target: T1, 6His-Bnr1-758 (Bnr1-N)
# full-length 6His-Bnr1 [1] = target: T2, full-length 6His-Bnr1 (S. cerevisiae, UniProt P40450 1-1375)
# full-length 6His-Bnr1 [2] = target: T2, full-length 6His-Bnr1; remark: listed apart in the source
Binder,binding result (6His-Bnr1-758 (Bnr1-N)),binding result (full-length 6His-Bnr1 [1]),binding result (full-length 6His-Bnr1 [2])
"pCAL-n-FLAG-Gin4-C (amino acids 540–1142) (domain or fragment, S. cerevisiae, UniProt Q12263 540-1142, looked up) SSNFATLIDEIFEYEKYEQIRKEKEELERKVREAKAREELERRRRKQEEKERARKLLEKEDLKRKQEELKKQIEIDISDLEQELSKHKEEKLDGNIRSISAPMENEEKNINHLEVDIDNILRRRNFSLQTRPVSRLDPGIMFSSPTEEVSPVEPKRTENERLTTEKKILETIRRSKFLGSSFNIDKELKLSKMEYPSIIAPQRLSEERVVSDSNDGYESLILPKDGNGVSQLKDSTATTAPVSDGRLRKISEIRVPQFTRKSRHFSESNKRLSVLSMYSTKESFTNLVDILKNGNLDVNNQQSQRIPTPRSADDSEFLFETVNEEAEYTGNSSNDERLYDVGDSTIKDKSALKLNFADRFNGSNEAKQTDNLHLPILPPLNGDNELRKQNSQEGDQAHPKIKSMIPESGSSSHTEKEEENEEKEEKKPEQHKQEEDQEKREKVVDDMEPPLNKSVQKIREKNAGSQAKDHSKDHLKEHKQDKNTAIGNGSFFRKFSKSSDKTMELYAKISAKQLFNGLEKLLRGWTQYGLKNIKSHPNNLTLTGKLSSDNIFSLRSTLFEVNIYPRGKMSVVQFKKVSGSFKAVKKLVNEVENVLNKEGVLQK",binds,binds,
"full-length GST-Gin4 (enzyme, S. cerevisiae, UniProt Q12263 1-1142, looked up) MAINGNSIPAIKDNTIGPWKLGETLGLGSTGKVQLARNGSTGQEAAVKVISKAVFNTGNVSGTSIVGSTTPDALPYGIEREIIIMKLLNHPNVLRLYDVWETNTDLYLVLEYAEKGELFNLLVERGPLPEHEAIRFFRQIIIGVSYCHALGIVHRDLKPENLLLDHKYNIKIADFGMAALETEGKLLETSCGSPHYAAPEIVSGIPYQGFASDVWSCGVILFALLTGRLPFDEEDGNIRTLLLKVQKGEFEMPSDDEISREAQDLIRKILTVDPERRIKTRDILKHPLLQKYPSIRDSKSIRGLPREDTYLTPLSESNSSIDATILQNLVILWHGRDPEGIKEKLREPGANAEKTLYALLYRFKCDTQKELIKQQQVKKRQSISSVSVSPSKKVSTTPQRRRNRESLISVTSSRKKPISFNKFTASSASSSNLTTPGSSKRLSKNFSSKKKLSTIVNQSSPTPASRNKRASVINVEKNQKRASIFSTTKKNKRSSRSIKRMSLIPSMKRESVTTKLMSTYAKLAEDDDWEYIEKETKRTSSNFATLIDEIFEYEKYEQIRKEKEELERKVREAKAREELERRRRKQEEKERARKLLEKEDLKRKQEELKKQIEIDISDLEQELSKHKEEKLDGNIRSISAPMENEEKNINHLEVDIDNILRRRNFSLQTRPVSRLDPGIMFSSPTEEVSPVEPKRTENERLTTEKKILETIRRSKFLGSSFNIDKELKLSKMEYPSIIAPQRLSEERVVSDSNDGYESLILPKDGNGVSQLKDSTATTAPVSDGRLRKISEIRVPQFTRKSRHFSESNKRLSVLSMYSTKESFTNLVDILKNGNLDVNNQQSQRIPTPRSADDSEFLFETVNEEAEYTGNSSNDERLYDVGDSTIKDKSALKLNFADRFNGSNEAKQTDNLHLPILPPLNGDNELRKQNSQEGDQAHPKIKSMIPESGSSSHTEKEEENEEKEEKKPEQHKQEEDQEKREKVVDDMEPPLNKSVQKIREKNAGSQAKDHSKDHLKEHKQDKNTAIGNGSFFRKFSKSSDKTMELYAKISAKQLFNGLEKLLRGWTQYGLKNIKSHPNNLTLTGKLSSDNIFSLRSTLFEVNIYPRGKMSVVQFKKVSGSFKAVKKLVNEVENVLNKEGVLQK",,,binds

# Source: paper PMC3469519 (Molecular Biology of the Cell, 2012)
